The source of these data is publication PMC5772059.

In this test the target is N2Bus phosphorylated by PKA catalytic subunit or cGMP-activated PKG. Put plainly: pull-down; GST pull-down: purified protein incubated with a GST-fusion protein immobilised on glutathione sepharose beads, 4 °C, 1.5 h; washes in high and low salt buffer; SDS-PAGE and western blot. (Immunoblotting shows a protein as a band on a membrane.)

B1: recombinant human full-length PP5 (enzyme)
chain: MAMAEGERTECAEPPRDEPPADGALKRAEELKTQANDYFKAKDYENAIKFYSQAIELNPSNAIYYGNRSLAYLRTECYGYALGDATRAIELDKKYIKGYYRRAASNMALGKFRAALRDYETVVKVKPHDKDAKMKYQECNKIVKQKAFERAIAGDEHKRSVVDSLDIESMTIEDEYSGPKLEDGKVTISFMKELMQWYKDQKKLHRKCAYQILVQVKEVLSKLSTLVETTLKETEKITVCGDTHGQFYDLLNIFELNGLPSETNPYIFNGDFVDRGSFSVEVILTLFGFKLLYPDHFHLLRGNHETDNMNQIYGFEGEVKAKYTAQMYELFSEVFEWLPLAQCINGKVLIMHGGLFSEDGVTLDDIRKIERNRQPPDSGPMCDLLWSDPQPQNGRSISKRGVSCQFGPDVTKAFLEENNLDYIIRSHEVKAEGYEVAHGGRCVTVFSAPNYCDQMGNKASYIHLQGSDLRPQFHQFTAVPHPNVKPMAYANTLLQLGMM
For B1, the fold binding against unphosphorylated N2Bus was in the range of 2 to 3 times.
